Source: PMC2592692
Values belong to the molecule of their own block, whether it stands above or below them.

Legend:
[1] = biological target: microtubules (purified tubulin, polymerised in buffer); test: TIRF of Eg5-GFP on immobilised GMPCPP microtubules; settings: reference: wild-type Eg5-GFP, Cdk1-treated; sites T937
[2] = biological target: Alexa-568 labeled microtubules (paclitaxel-stabilised) (UniProt P02550)
[3] = biological target: spindle microtubules in Xenopus egg extract (Xenopus laevis (endogenous in egg extract)); test: fluorescence microscopy of fixed spindles (GFP intensity per TAMRA-tubulin intensity); endogenous Eg5 immunodepleted from Xenopus egg extract and replaced by recombinant Eg5-GFP constructs; spindle structures fixed after 45 min, spun onto coverslips; ratios normalised to 1 at 460 nM Eg5-GFP

Chain of UniProt P02550 (P02550 whole entry, looked up): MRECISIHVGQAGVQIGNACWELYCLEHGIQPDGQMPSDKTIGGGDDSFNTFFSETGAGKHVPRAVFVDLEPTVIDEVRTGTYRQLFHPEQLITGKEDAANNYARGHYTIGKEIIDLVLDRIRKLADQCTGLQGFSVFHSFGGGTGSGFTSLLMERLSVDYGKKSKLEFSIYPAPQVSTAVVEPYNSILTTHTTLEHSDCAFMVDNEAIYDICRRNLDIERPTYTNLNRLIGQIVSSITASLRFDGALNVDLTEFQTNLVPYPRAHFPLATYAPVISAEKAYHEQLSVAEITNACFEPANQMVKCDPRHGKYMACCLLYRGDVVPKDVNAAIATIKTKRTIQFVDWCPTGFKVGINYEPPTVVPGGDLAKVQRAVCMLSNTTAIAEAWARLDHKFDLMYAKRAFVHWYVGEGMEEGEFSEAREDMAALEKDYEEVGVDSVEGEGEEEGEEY

other: mean GFP intensity on microtubules at 15 nM Eg5 [1]: weaker; reference 1226±39
Molecule: Eg5 1-1067 Eg5T937A-GFP, Cdk1-treated

velocity in microtubule gliding assay (surface-adsorbed motor, 21°C) [2]: 1.7 µm/min
B1: Eg5 phosphorylated at threonine 937 by Cdk1/cyclin B in vitro (natural protein)
chain: MSSQNSFMASKKEDKGKNIQVVVRCRPFNQLERKASSHSVLECDSQRKEVYVRTGEVNDKLGKKTYTFDMVFGPAAKQIEVYRSVVCPILDEVIMGYNCTIFAYGQTGTGKTFTMEGERSSDEEFTWEQDPLAGIIPRTLHQIFEKLSENGTEFSVKVSLLEIYNEELFDLLSPSPDVGERLQMFDDPRNKRGVIIKGLEEISVHNKDEVYHILERGAARRKTASTLMNAYSSRSHSVFSVTIHMKETTVDGEELVKIGKLNLVDLAGSENIGRSGAVDKRAREAGNINQSLLTLGRVITALVERTPHIPYRESKLTRILQDSLGGRTKTSIIATVSPASINLEETVSTLDYANRAKSIMNKPEVNQKLTKKALIKEYTEEIERLKRELAAAREKNGVYLSSENYEQLQGKVLSQEEMITEYTEKITAMEEELKSISELFADNKKELEECTTILQCKEKELEETQNHLQESKEQLAQESFVVSAFETTEKKLHGTANKLLSTVRETTRDVSGLHEKLDRKKAVDQHNFQVHENFAEQMDRRFSVIQRTVDDYSVKQQGMLDFYTNSIDDLLGASSSRLSATASAVAKSFASVQETVTKQVSHSVEEILKQETLSSQAKGDLQQLMAAHRTGLEEALRSDLLPVVTAVLDLNSHLSHCLQNFLIVADKIDSHKEDMNSFFTEHSRSLHKLRLDSSSALSSIQSEYESLKEDIATAQSMHSEGVNNLISSLQNQLNLLGMETQQQFSGFLSKGGKLQKSVGSLQQDLDLVSSEAIECISSHHKKLAEQSQDVAVEIRQLAGSNMSTLEESSKQCEKLTSSINTISQESQQWCESAGQKIDSVLEEQVCYLHSSKKHLQNLHKGVEDSCGSSVVEITDRVNAQRQAEEKALTSLVEQVRDDQEMVGEQRLELQEQVQSGLNKVHSYLKEELRNDVPTGTTPQRRDYAYPSLLVKTKPRDVLLEQFRQQQQEYLESISSVISEAVEPPVEQDSLEDEPPVAVNDSVISERSCIDLSMTCQEKGGIRFFQQKKALRKEKENRGNTTLLERSKIMDEVDQALTKSKLPLRMQN
modifications: phosphothreonine at 937 (degree of phosphorylation 87.9% per polypeptide chain)

velocity in microtubule gliding assay relative to wild-type Eg5, with or without Cdk1/cyclin B [2]: 88%
B2: Eg5_(T937A) (non-phosphorylatable mutant of full-length Xenopus laevis Eg5) (natural protein)
chain: MSSQNSFMASKKEDKGKNIQVVVRCRPFNQLERKASSHSVLECDSQRKEVYVRTGEVNDKLGKKTYTFDMVFGPAAKQIEVYRSVVCPILDEVIMGYNCTIFAYGQTGTGKTFTMEGERSSDEEFTWEQDPLAGIIPRTLHQIFEKLSENGTEFSVKVSLLEIYNEELFDLLSPSPDVGERLQMFDDPRNKRGVIIKGLEEISVHNKDEVYHILERGAARRKTASTLMNAYSSRSHSVFSVTIHMKETTVDGEELVKIGKLNLVDLAGSENIGRSGAVDKRAREAGNINQSLLTLGRVITALVERTPHIPYRESKLTRILQDSLGGRTKTSIIATVSPASINLEETVSTLDYANRAKSIMNKPEVNQKLTKKALIKEYTEEIERLKRELAAAREKNGVYLSSENYEQLQGKVLSQEEMITEYTEKITAMEEELKSISELFADNKKELEECTTILQCKEKELEETQNHLQESKEQLAQESFVVSAFETTEKKLHGTANKLLSTVRETTRDVSGLHEKLDRKKAVDQHNFQVHENFAEQMDRRFSVIQRTVDDYSVKQQGMLDFYTNSIDDLLGASSSRLSATASAVAKSFASVQETVTKQVSHSVEEILKQETLSSQAKGDLQQLMAAHRTGLEEALRSDLLPVVTAVLDLNSHLSHCLQNFLIVADKIDSHKEDMNSFFTEHSRSLHKLRLDSSSALSSIQSEYESLKEDIATAQSMHSEGVNNLISSLQNQLNLLGMETQQQFSGFLSKGGKLQKSVGSLQQDLDLVSSEAIECISSHHKKLAEQSQDVAVEIRQLAGSNMSTLEESSKQCEKLTSSINTISQESQQWCESAGQKIDSVLEEQVCYLHSSKKHLQNLHKGVEDSCGSSVVEITDRVNAQRQAEEKALTSLVEQVRDDQEMVGEQRLELQEQVQSGLNKVHSYLKEELRNDVPTGTAPQRRDYAYPSLLVKTKPRDVLLEQFRQQQQEYLESISSVISEAVEPPVEQDSLEDEPPVAVNDSVISERSCIDLSMTCQEKGGIRFFQQKKALRKEKENRGNTTLLERSKIMDEVDQALTKSKLPLRMQN

fold lower amount bound than wild-type Eg5-GFP, at endogenous concentration [3]: 20 fold
B3: Eg5_(T937A)-GFP (non-phosphorylatable mutant of Xenopus laevis Eg5 with C-terminal GFP) (natural protein)
chain: MSSQNSFMASKKEDKGKNIQVVVRCRPFNQLERKASSHSVLECDSQRKEVYVRTGEVNDKLGKKTYTFDMVFGPAAKQIEVYRSVVCPILDEVIMGYNCTIFAYGQTGTGKTFTMEGERSSDEEFTWEQDPLAGIIPRTLHQIFEKLSENGTEFSVKVSLLEIYNEELFDLLSPSPDVGERLQMFDDPRNKRGVIIKGLEEISVHNKDEVYHILERGAARRKTASTLMNAYSSRSHSVFSVTIHMKETTVDGEELVKIGKLNLVDLAGSENIGRSGAVDKRAREAGNINQSLLTLGRVITALVERTPHIPYRESKLTRILQDSLGGRTKTSIIATVSPASINLEETVSTLDYANRAKSIMNKPEVNQKLTKKALIKEYTEEIERLKRELAAAREKNGVYLSSENYEQLQGKVLSQEEMITEYTEKITAMEEELKSISELFADNKKELEECTTILQCKEKELEETQNHLQESKEQLAQESFVVSAFETTEKKLHGTANKLLSTVRETTRDVSGLHEKLDRKKAVDQHNFQVHENFAEQMDRRFSVIQRTVDDYSVKQQGMLDFYTNSIDDLLGASSSRLSATASAVAKSFASVQETVTKQVSHSVEEILKQETLSSQAKGDLQQLMAAHRTGLEEALRSDLLPVVTAVLDLNSHLSHCLQNFLIVADKIDSHKEDMNSFFTEHSRSLHKLRLDSSSALSSIQSEYESLKEDIATAQSMHSEGVNNLISSLQNQLNLLGMETQQQFSGFLSKGGKLQKSVGSLQQDLDLVSSEAIECISSHHKKLAEQSQDVAVEIRQLAGSNMSTLEESSKQCEKLTSSINTISQESQQWCESAGQKIDSVLEEQVCYLHSSKKHLQNLHKGVEDSCGSSVVEITDRVNAQRQAEEKALTSLVEQVRDDQEMVGEQRLELQEQVQSGLNKVHSYLKEELRNDVPTGTAPQRRDYAYPSLLVKTKPRDVLLEQFRQQQQEYLESISSVISEAVEPPVEQDSLEDEPPVAVNDSVISERSCIDLSMTCQEKGGIRFFQQKKALRKEKENRGNTTLLERSKIMDEVDQALTKSKLPLRMQN

velocity in microtubule gliding assay (surface-adsorbed motor, 21°C) [2]: 1.8 µm/min
B4: Eg5 (wild-type full-length Xenopus laevis Eg5), not phosphorylated (natural protein)
chain: MSSQNSFMASKKEDKGKNIQVVVRCRPFNQLERKASSHSVLECDSQRKEVYVRTGEVNDKLGKKTYTFDMVFGPAAKQIEVYRSVVCPILDEVIMGYNCTIFAYGQTGTGKTFTMEGERSSDEEFTWEQDPLAGIIPRTLHQIFEKLSENGTEFSVKVSLLEIYNEELFDLLSPSPDVGERLQMFDDPRNKRGVIIKGLEEISVHNKDEVYHILERGAARRKTASTLMNAYSSRSHSVFSVTIHMKETTVDGEELVKIGKLNLVDLAGSENIGRSGAVDKRAREAGNINQSLLTLGRVITALVERTPHIPYRESKLTRILQDSLGGRTKTSIIATVSPASINLEETVSTLDYANRAKSIMNKPEVNQKLTKKALIKEYTEEIERLKRELAAAREKNGVYLSSENYEQLQGKVLSQEEMITEYTEKITAMEEELKSISELFADNKKELEECTTILQCKEKELEETQNHLQESKEQLAQESFVVSAFETTEKKLHGTANKLLSTVRETTRDVSGLHEKLDRKKAVDQHNFQVHENFAEQMDRRFSVIQRTVDDYSVKQQGMLDFYTNSIDDLLGASSSRLSATASAVAKSFASVQETVTKQVSHSVEEILKQETLSSQAKGDLQQLMAAHRTGLEEALRSDLLPVVTAVLDLNSHLSHCLQNFLIVADKIDSHKEDMNSFFTEHSRSLHKLRLDSSSALSSIQSEYESLKEDIATAQSMHSEGVNNLISSLQNQLNLLGMETQQQFSGFLSKGGKLQKSVGSLQQDLDLVSSEAIECISSHHKKLAEQSQDVAVEIRQLAGSNMSTLEESSKQCEKLTSSINTISQESQQWCESAGQKIDSVLEEQVCYLHSSKKHLQNLHKGVEDSCGSSVVEITDRVNAQRQAEEKALTSLVEQVRDDQEMVGEQRLELQEQVQSGLNKVHSYLKEELRNDVPTGTTPQRRDYAYPSLLVKTKPRDVLLEQFRQQQQEYLESISSVISEAVEPPVEQDSLEDEPPVAVNDSVISERSCIDLSMTCQEKGGIRFFQQKKALRKEKENRGNTTLLERSKIMDEVDQALTKSKLPLRMQN
